# T1: peptide of SEQ ID NO: 1
# T1 chain: GKCSTRGRKCCRRKK
# Molecular target: T1, peptide of SEQ ID NO: 1
protein,measurement,value
HDAC5 in RAW 264.7 cells (protein) MNSPNESDGMSGREPSLGILPRTPLHSIPVAVEVKPVLPGAMPSSMGGGGGGSPSPVELRGALAGPMDPALREQQLQQELLVLKQQQQLQKQLLFAEFQKQHDHLTRQHEVQLQKHLKQQQEMLAAKRQQELEQQRQREQQRQEELEKQRLEQQLLILRNKEKSKESAIASTEVKLRLQEFLLSKSKEPTPGGLNHSLPQHPKCWGAHHASLDQSSPPQSGPPGTPPSYKLPLLGPYDSRDDFPLRKTASEPNLKVRSRLKQKVAERRSSPLLRRKDGTVISTFKKRAVEITGTGPGVSSVCNSAPGSGPSSPNSSHSTIAENGFTGSVPNIPTEMIPQHRALPLDSSPNQFSLYTSPSLPNISLGLQATVTVTNSHLTASPKLSTQQEAERQALQSLRQGGTLTGKFMSTSSIPGCLLGVALEGDTSPHGHASLLQHVCSWTGRQQSTLIAVPLHGQSPLVTGERVATSMRTVGKLPRHRPLSRTQSSPLPQSPQALQQLVMQQQHQQFLEKQKQQQMQLGKILTKTGELSRQPTTHPEETEEELTEQQEALLGEGALTIPREGSTESESTQEDLEEEEEEEEEEEEDCIQVKDEDGESGPDEGPDLEESSAGYKKLFADAQQLQPLQVYQAPLSLATVPHQALGRTQSSPAAPGSMKSPTDQPTVVKHLFTTGVVYDTFMLKHQCMCGNTHVHPEHAGRIQSIWSRLQETGLLGKCERIRGRKATLDEIQTVHSEYHTLLYGTSPLNRQKLDSKKLLGPISQKMYAMLPCGGIGVDSDTVWNEMHSSSAVRMAVGCLVELAFKVAAGELKNGFAIIRPPGHHAEESTAMGFCFFNSVAITAKLLQQKLSVGKVLIVDWDIHHGNGTQQAFYNDPSVLYISLHRYDNGNFFPGSGAPEEVGGGPGVGYNVNVAWTGGVDPPIGDVEYLTAFRTVVMPIAQEFSPDVVLVSAGFDAVEGHLSPLGGYSVTARCFGHLTRQLMTLAGGRVVLALEGGHDLTAICDASEACVSALLSVELQPLDEAVLQQKPSVNAVATLEKVIEIQSKHWSCVQRFAAGLGCSLREAQTGEKEEAETVSAMALLSVGAEQAQAVATQEHSPRPAEEPMEQEPAL,"Phosphorylation ratio (Phospho explorer antibody microarray, peptide + LPS against LPS alone)",phosphorylation of HDAC5 was inhibited the most (0.278)

# Reference: patent publication US20240166688
